Earlier results on 1 substance are cited in article PMC13598549.

The term Kd denotes the constant that tells how readily two partners part at equilibrium.

The target in this data set is TEAD (Homo sapiens) (UniProt P28347).
Chain of UniProt P28347 (P28347 whole entry): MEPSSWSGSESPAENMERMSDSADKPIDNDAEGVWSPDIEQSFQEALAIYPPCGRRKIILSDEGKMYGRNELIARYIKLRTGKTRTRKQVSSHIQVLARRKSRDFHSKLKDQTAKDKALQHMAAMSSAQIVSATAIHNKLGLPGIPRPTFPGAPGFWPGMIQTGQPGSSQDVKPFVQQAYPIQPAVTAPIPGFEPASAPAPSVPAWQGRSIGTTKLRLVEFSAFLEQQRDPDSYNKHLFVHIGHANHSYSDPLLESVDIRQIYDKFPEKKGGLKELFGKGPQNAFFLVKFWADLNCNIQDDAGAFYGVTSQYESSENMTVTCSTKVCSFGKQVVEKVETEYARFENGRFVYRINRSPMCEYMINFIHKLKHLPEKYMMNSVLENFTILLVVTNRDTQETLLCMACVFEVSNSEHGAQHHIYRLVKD

YAP (from UniProt P46937): the Kd is 0.04 µM.
